6 molecules from US20250129178A1 (INNOBATION BIO, published 2025) can be followed below.

For assay [1], the target named is T1, mesothelin on NCI-H2052 mesothelioma cells overexpressing mesothelin (UniProt Q13421 296-598).
T1 construct: whole, on cells; NCI-H2052 is a human cell line and the positive control is anti-human mesothelin; also called H2052 cells; cells expressing mesothelin
As to the kind of experiment: flow cytometry on NCI-H2052 cells, 1 ug antibody, PE goat anti-mouse IgG secondary. Background: In flow cytometry, cells or beads pass a laser one at a time.

Assay [2] deals with T2, mesothelin protein (Acrobiosystems, cat #MSN-H5223) (UniProt Q13421 296-580).
T2 construct: The catalogue number is printed only for the immunogen; also called mesothelin peptide; MSLN
As to the kind of experiment: ELISA, mesothelin peptide coated 100 ng/well, 100 ul hybridoma culture, anti-mIgG-HRP. A general note: An ELISA detects its analyte on a solid surface through an enzyme-linked reagent.
Experimental: First, in order to encode the mesothelin peptide, mesothelin peptide was dispensed into a 96-well plate at an amount of 100 ng/well and reacted overnight at 4° C. Then, after treatment with 1×PBST containing 3% BSA, it was blocked for 30 minutes at room temperature. […] The secondary antibody (anti-HRP, 1:10,000) was treated and reacted at room temperature for 30 minutes, washed three times with 1×PBST, and then treated with TMB for color development and reacted at room temperature for 5 minutes. Finally, the reaction was terminated by treatment with a stop solution of 1N H₂SO₄, and then the absorbance was measured at 450 nm.

T2 sequence (Q13421 other isoform, or with tags, fused parts or gaps limits assumed): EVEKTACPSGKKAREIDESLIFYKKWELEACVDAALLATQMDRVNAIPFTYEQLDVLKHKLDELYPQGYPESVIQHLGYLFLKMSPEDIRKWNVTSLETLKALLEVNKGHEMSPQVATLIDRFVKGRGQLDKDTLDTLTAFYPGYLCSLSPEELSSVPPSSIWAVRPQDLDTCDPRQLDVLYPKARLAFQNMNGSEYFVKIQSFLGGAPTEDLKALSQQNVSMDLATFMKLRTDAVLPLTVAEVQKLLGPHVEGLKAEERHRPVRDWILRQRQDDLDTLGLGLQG
T1 sequence (Q13421 other isoform, or with tags, fused parts or gaps limits assumed): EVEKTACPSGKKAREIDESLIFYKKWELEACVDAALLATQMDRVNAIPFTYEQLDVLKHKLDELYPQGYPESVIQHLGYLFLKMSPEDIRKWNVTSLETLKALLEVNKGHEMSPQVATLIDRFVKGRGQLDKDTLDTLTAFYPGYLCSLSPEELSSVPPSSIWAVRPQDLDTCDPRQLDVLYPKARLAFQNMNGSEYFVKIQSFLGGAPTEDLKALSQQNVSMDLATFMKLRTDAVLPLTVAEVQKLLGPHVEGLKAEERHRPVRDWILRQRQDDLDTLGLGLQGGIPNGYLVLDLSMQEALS

B1: 9E8 antibody (antibody, V domains shown)
VH: EVQLQQSGPELVKPGASMKISCKASGYSFTGYTMNWVKQSHGKNLEWIGLINPYNGGTSYNQKFKGKATLTVDKSSSTAYMELLSLTSEDSAVYYCARVGGSSWYFDVWGAGTTVTVSS
VL: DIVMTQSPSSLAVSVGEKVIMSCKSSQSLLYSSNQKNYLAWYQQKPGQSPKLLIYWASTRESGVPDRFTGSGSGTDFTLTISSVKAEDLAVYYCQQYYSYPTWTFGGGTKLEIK
notes: Mouse hybridoma monoclonal antibody, detected with anti-mouse IgG; The printed VH and VL are identical to those of 3A8
With B1, in assay [1], the Mean was determined as 77.7 and the Median was found to be 56.2. Besides, the “OD 450 measurements” value in assay [2] was 0.758 OD 450.

B2: 3A8 antibody (antibody, V domains shown)
VH: EVQLQQSGPELVKPGASMKISCKASGYSFTGYTMNWVKQSHGKNLEWIGLINPYNGGTSYNQKFKGKATLTVDKSSSTAYMELLSLTSEDSAVYYCARVGGSSWYFDVWGAGTTVTVSS
VL: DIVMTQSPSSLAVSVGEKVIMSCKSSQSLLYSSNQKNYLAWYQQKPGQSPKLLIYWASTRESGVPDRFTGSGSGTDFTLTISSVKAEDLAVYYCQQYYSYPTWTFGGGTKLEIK
notes: Mouse hybridoma monoclonal antibody; Tested as hybridoma culture supernatant in ELISA and at 1 ug in flow cytometry, detected with anti-mouse IgG; The printed VH and VL are identical to those of 9E8
Take B2: in assay [1], the Mean was 861 and the Median was determined as 704. Also, the “OD 450 measurements” value in assay [2] turned out to be 1.27 OD 450.

B3: 4G11 antibody (antibody, V domains shown)
VH: EVQLQQSGPELVKTGDSVKISCKASGYSFTGYYMHWVKQSHGKSLEWIGYISCYNGATSYSQKFKGKATFTVDTSSSTAYMQFNSLTSEDSAVYYCARWDRDWFAYWGQGTLVTVSA
VL: DIVMTQSHKFMSTSVGDRVSITCKASQDVGIAVAWYQQKPGQSPKLLIYWASTRHTGVPDRFTGSGSGTDFTLTISNVQSEDLADYFCQQYSSYPFTFGSGTKLEIK
notes: Mouse hybridoma monoclonal antibody, detected with anti-mouse IgG
For B3, in assay [1], the Mean is 1260 and the Median was determined as 1120. Moreover, the “OD 450 measurements” value in assay [2] was found to be 1.35 OD 450.

B4: 5A9 antibody (antibody, V domains shown)
VH: EVQLEESGPAVIKPSQSLSLTCIVSGFSITSSSYCWHWIRQPPGKGLEWMGRICYEGSIYYSPSIKSRFTISRDTSLNKFFIQLSSVTNEDTAMYYCSRENRLLKDAMDYWGQGTSVTVSS
VL: DIVMTQSPSSLAVSAGEKVTMSCKSSQSLLSSRTRKNYLAWYQQKPGQSPKLLIYWASTRESGVPDRFTGSGSGTDFTLTISSVQAEDLAVYYCKQSYNLRTFGGGTKLEIK
notes: as for B3
Consider B4, for which, in assay [1], the Mean was 63.2 and the Median was 58.5. The “OD 450 measurements” value in assay [2] was 1.49 OD 450.

B5: 7C3 antibody (antibody, V domains shown)
VH: EVQLQQSGAELMRPGASVKISCKATGYTFSAYWIEWVKQRPGHGLEWIGEILPGSGSTKYNEKFKGKATFTADTSSNTAYMQLSSLTSEDSAVYYCARGDYYAMDYWGQGTSVTVSS
VL: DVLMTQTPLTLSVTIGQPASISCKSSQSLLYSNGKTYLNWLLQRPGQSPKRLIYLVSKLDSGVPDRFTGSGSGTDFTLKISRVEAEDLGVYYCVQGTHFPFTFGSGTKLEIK
notes: as for B3
In assay [1], B5 showed a Mean of 528 and a Median of 444. For the same molecule, the “OD 450 measurements” value in assay [2] was determined as 1.52 OD 450.

B6: 9E11 antibody (antibody, V domains shown)
VH: QVQLKESGPGLVKPSQSLSLTCTVTGYSITSDYAWNWIRQFPGNKLEWMGYISYSGSTRYNPSLKSRISITRDTSKNQFFLQLNSVTTEDTATYYCARGAAGFAYWGQGTLVTVSA
VL: DIVMTQSPASQSASLGESVTITCLASQTIGTWLAWYQQKPGKSPQLLIYAATSLADGVPSRFSGSGSGTEFSFKISSLQAEDFVSYYCQQLYSTPWTFGGGTKLEIK
notes: as for B3
As to B6, in assay [1], the Mean is 81.4 and the Median turned out to be 69.1. In assay [2], the “OD 450 measurements” value was determined as 1.64 OD 450.
